In US11306137B2, “Antibody binding agents that bind Acinetobactor and uses thereof” (priority 2015, dated 2022):
Entries after “also recorded” stand apart in the source; their conditions may differ.

How the values were obtained:
[1] = system: A. baumannii HUMC1 uptake by RAW 264.7 macrophages; experiment: Opsonophagocytosis assay (macrophage uptake); format: cell-based; conditions: FIG. 6B
Description: RAW 264.7 macrophages (1×10^6 per well) were grown on coverslips in 12-well plates and stimulated with 100 U/mL IFN-γ. Cells adhered to the cover glass overnight in a humidified incubator at 37° C. supplemented with 5% CO2. Cells were washed three times with HBSS and bacteria were added to wells at a ratio of 10:1, bacteria to macrophages, in the presence (or absence) of 10% fetal bovine serum (FBS), either heat-inactivated or complement-active. Plates were briefly centrifuged at 250×g to cohere the bacterial cells to the bottom of the plate and incubated at 37° for 2 hr. Macrophages were washed three times with PBS, fixed with 100% methanol, and Hema 3-stained according to the manufacturer's protocol (Fisher Scientific). To quantitate bacteria counts per macrophage, coverslips were imaged on a Zeiss Axiolmager microscope. Macrophages harboring visible adherent or internalized bacteria were counted and divided by total macrophages to determine the percentage of cells with associated bacteria. The number of bacteria associated with each macrophage was also quantitated and recorded. A minimum of 100 cells per coverslip were counted.

[2] = system: A. baumannii cell surface; experiment: Flow cytometry binding to A. baumannii cell surface
Description: Hybridoma pre-clones were selected for subcloning based on bacterial cell surface reactivity by flow cytometry. Briefly, A. baumannii was passaged to log phase, stained with the bacterial dye SYTO BC (LifeTech #B7277), then stained with pre-clone supernatant from 96-well plates at 4° C., rinsed, and counter-stained with CF 647-conjugated goat anti-mouse IgG (Sigma-Aldrich, #SAB4600182). Control samples were stained with mouse IgG1 isotype control mAb (R&D Systems, #MAB002). Percent positivity was determined by flow cytometry.
Hybridoma cell lines were propagated in 96-well flat-bottom plates in DMEM-20%, and supernatants were harvested from wells for initial flow cytometry screening to identify antibodies that bound to intact bacteria. In brief, A. baumannii isolates were passaged to log phase, stained with the bacterial dye SYTO BC (LifeTech #B7277), and incubated for 1 hr with undiluted supernatants collected from 96-well plates at 4° C. Cells were washed and counter-stained with a secondary antibody, CF647-conjugated goat anti-mouse IgG (Sigma-Aldrich, #SAB4600182). Control samples were stained with a mouse IgG1 isotype control MAb (R&D Systems, #MAB002) as a negative control, and mouse polyclonal HUMC1-immune serum as a positive control for bacterial binding. Hybridomas that tested positive for bacterial binding were subcloned by limiting dilution into 96-well plates to ensure clonality, expanded, and retested to confirm bacterial binding.

B1: C8: mouse IgG1-kappa monoclonal antibody from hybridoma 9.1C8 (ATCC PTA-122177); light chain SEQ ID NO:2, heavy chain SEQ ID NO:3 (antibody, listed as Mus musculus, V domains shown)
VH: EVQLQQSGPELVKPGASVKISCKASGYSFTGYTMNWVKQSHGKSLEWIGRINPYNGDSFYNQKFKGKATLTVDKSSNIAHMEFLSLTSEDSAVYYCGRSGDGPWFAYWGQGTLVTVSA
VL: LPLSLPVSLGDQASISCRSSQSIVHNNGNTYLEWYLQKPGQSPKLLIYKVSNRFSGVPDRFSGSGSGTDFTLKISRVEAEDLGVYYCFQGSHVPLTFGAGTKLEIKGSRS
In the case of B1, the “macrophage uptake of A. baumannii” value ([1]; C8 5 μg/mL, heat-inactivated or complement-active serum) is reported as “markedly increased; also recorded: markedly improved macrophage uptake”, the “macrophage uptake of A. baumannii with active complement” value ([1]; C8 MAb plus normal serum with active complement) is reported as “highest uptake; also recorded: enhancement was greatest with complement” and the “binding to the cell surface of A. baumannii by flow cytometry” value ([2]; HUMC1 strain) is reported as “specifically bound; also recorded: to the same extent as polyclonal immune serum”. The “surface binding to other clinical isolates by flow cytometry” value ([2]; HUMC6, C14, ATCC 17978, AB0071, UH7007 (Table 7)) was “representative of 5 other strains; also recorded: Surface binding was confirmed to 4 other diverse clinical isolates”.
